The values that follow come from publication PMC6522346 (Science (New York, N.Y.), 2018).

Holding throughout (test): native MS
One data set deals with complex IV.
The target of data set [1] is complex III (Bos taurus (endogenous in bovine mitochondria)) (UniProt P00157).
In data set [2] the target is Anchor Cell Fusion Failure protein 1.
The data set “native MS” concerns the molecule itself.

One may read the stoichiometry N as a count of units in the complex or per binding partner. The molecule complex IV registered a stoichiometry N with complex IV of 2. For the molecule “complex III (from UniProt P00157;P00129)”, in data set [1], the stoichiometry N was determined as 2. As for “Anchor Cell Fusion Failure protein 1 (natural protein)”, the stoichiometry N in data set [2] turned out to be 2.

B1: CyoB (natural protein)
chain: MFGKLSLDAVPFHEPIVMVTIAGIILGGLALVGLITYFGKWTYLWKEWLTSVDHKRLGIMYIIVAIVMLLRGFADAIMMRSQQALASAGEAGFLPPHHYDQIFTAHGVIMIFFVAMPFVIGLMNLVVPLQIGARDVAFPFLNNLSFWFTVVGVILVNVSLGVGEFAQTGWLAYPPLSGIEYSPGVGVDYWIWSLQLSGIGTTLTGINFFVTILKMRAPGMTMFKMPVFTWASLCANVLIIASFPILTVTVALLTLDRYLGTHFFTNDMGGNMMMYINLIWAWGHPEVYILILPVFGVFSEIAATFSRKRLFGYTSLVWATVCITVLSFIVWLHHFFTMGAGANVNAFFGITTMIIAIPTGVKIFNWLFTMYQGRIVFHSAMLWTIGFIVTFSVGGMTGVLLAVPGADFVLHNSLFLIAHFHNVIIGGVVFGCFAGMTYWWPKAFGFKLNETWGKRAFWFWIIGFFVAFMPLYALGFMGMTRRLSQQIDPQFHTMLMIAASGAVLIALGILCLVIQMYVSIRDRDQNRDLTGDPWGGRTLEWATSSPPPFYNFAVVPHVHERDAFWEMKEKGEAYKKPDHYEEIHMPKNSGAGIVIAAFSTIFGFAMIWHIWWLAIVGFAGMIITWIVKSFDEDVDYYVPVAEIEKLENQHFDEITKAGLKNGN
B1: the “stoichiometry N” value in “native MS” was 2.

B2: adenine nucleotide translocase 1 (natural protein)
chain: MSDQALSFLKDFLAGGVAAAISKTAVAPIERVKLLLQVQHASKQISAEKQYKGIIDCVVRIPKEQGFLSFWRGNLANVIRYFPTQALNFAFKDKYKQIFLGGVDRHKQFWRYFAGNLASGGAAGATSLCFVYPLDFARTRLAADVGKGAAQREFTGLGNCITKIFKSDGLRGLYQGFNVSVQGIIIYRAAYFGVYDTAKGMLPDPKNVHIIVSWMIAQTVTAVAGLVSYPFDTVRRRMMMQSGRKGADIMYTGTVDCWRKIAKDEGPKAFFKGAWSNVLRGMGGAFVLVLYDEIKKFV
Take B2: the “stoichiometry N” value in the data set “native MS” was 2.

B3: MdtB (natural protein)
chain: MQVLPPSSTGGPSRLFIMRPVATTLLMVAILLAGIIGYRALPVSALPEVDYPTIQVVTLYPGASPDVMTSAVTAPLERQFGQMSGLKQMSSQSSGGASVITLQFQLTLPLDVAEQEVQAAINAATNLLPSDLPNPPVYSKVNPADPPIMTLAVTSTAMPMTQVEDMVETRVAQKISQISGVGLVTLSGGQRPAVRVKLNAQAIAALGLTSETVRTAITGANVNSAKGSLDGPSRAVTLSANDQMQSAEEYRQLIIAYQNGAPIRLGDVATVEQGAENSWLGAWANKEQAIVMNVQRQPGANIISTADSIRQMLPQLTESLPKSVKVTVLSDRTTNIRASVDDTQFELMMAIALVVMIIYLFLRNIPATIIPGVAVPLSLIGTFAVMVFLDFSINNLTLMALTIATGFVVDDAIVVIENISRYIEKGEKPLAAALKGAGEIGFTIISLTFSLIAVLIPLLFMGDIVGRLFREFAITLAVAILISAVVSLTLTPMMCARMLSQESLRKQNRFSRASEKMFDRIIAAYGRGLAKVLNHPWLTLSVALSTLLLSVLLWVFIPKGFFPVQDNGIIQGTLQAPQSSSFANMAQRQRQVADVILQDPAVQSLTSFVGVDGTNPSLNSARLQINLKPLDERDDRVQKVIARLQTAVDKVPGVDLFLQPTQDLTIDTQVSRTQYQFTLQATSLDALSTWVPQLMEKLQQLPQLSDVSSDWQDKGLVAYVNVDRDSASRLGISMADVDNALYNAFGQRLISTIYTQANQYRVVLEHNTENTPGLAALDTIRLTSSDGGVVPLSSIAKIEQRFAPLSINHLDQFPVTTISFNVPDNYSLGDAVQAIMDTEKTLNLPVDITTQFQGSTLAFQSALGSTVWLIVAAVVAMYIVLGILYESFIHPITILSTLPTAGVGALLALLIAGSELDVIAIIGIILLIGIVKKNAIMMIDFALAAEREQGMSPREAIYQACLLRFRPILMTTLAALLGALPLMLSTGVGAELRRPLGIGMVGGLIVSQVLTLFTTPVIYLLFDRLALWTKSRFARHEEEA
On to B3, for which the “stoichiometry N” value in the data set “native MS” was 2.

B4: ExbB (natural protein)
chain: MGNNLMQTDLSVWGMYQHADIVVKCVMIGLILASVVTWAIFFSKSVEFFNQKRRLKREQQLLAEARSLNQANDIAADFGSKSLSLHLLNEAQNELELSEGSDDNEGIKERTSFRLERRVAAVGRQMGRGNGYLATIGAISPFVGLFGTVWGIMNSFIGIAQTQTTNLAVVAPGIAEALLATAIGLVAAIPAVVIYNVFARQIGGFKAMLGDVAAQVLLLQSRDLDLEASAAAHPVRVAQKLRAG
Take B4: the “stoichiometry N” value in “native MS” worked out at 5.
